Data on 34 sequences can be found in the domain aggregation screens of Martell et al. (2025).
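Also: 20 min heating vs room temperature control held 20 min.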

This series can be described thus: soluble fraction after stress (log2 fold change); higher = more stays soluble; pooled small domains, quantitative proteomics. Particulars: stress: 75 degC.
Turning to “HMGPWTETAAKGDAVSKRMLITWLQENADAEFLAAQKLTGQATSVAKRVTKDQLVELYLSVTTAA”, the “soluble fraction (log2)” value was -1.42.
In the case of “HMGQAAHYEGVKGDGESDTDVISRVLTAAGAEAQKDDIFVVKELIAGGKYSYTAYVYDGSVWAAM”, the “soluble fraction (log2)” value was -0.529.
For the sequence “HMGQAEEVRYSTFLDEVRNGRIEQVVLQGEHIIGTRKDKTVFSVFNPETDYTALIGTLSKSGVTIEGRP”, the “soluble fraction (log2)” value amounted to 0.283.
The value for “HMGQARQSAIRELGNDPTSGKKITVRSGRYGPYVTDGEVNASLRKGDDPQTIDLDRAIELLAARREKLG” was -0.148.
As for “HMGQDGFIGLEAAKKLVLQKLGLTSAEFIKAELDAEDRKYELELIVDGIEYDFDIDAYSGAFLKQEQETV”, the “soluble fraction (log2)” value was -0.519.
Turning to “HMGQEEKDIFLKLINISGIGPKLALNILSGIEASELEEAVRNTNVTRLSMVPGIGQKTALRIIMELSDKLE”, the “soluble fraction (log2)” value was -0.298.
With “HMGQELTMPDLKSMSRSNAEEKLKKMGLKLGAVFEENAKEPAGTVINQDPRSGSKITKGQTVDITVSLGEK”, the “soluble fraction (log2)” value is 0.265.
The value for “HMGQERAVPDVKGQSFDMAQGNISRAGLKAVVTDSVYDSYARPGTVVEQSPIPLAKIKRGGTVYLTLVA” was -0.118.
Under “HMGQGSAFVYYEVLPKQTEYSLTRKLGLGYADLLSLNPQLARGLQAGMVLKIPRDKAGNLEVKNDLILE” stands -0.643; under “HMGQISLSVNAIPEKAEVILDGNSIGNTPIRKNTITPGSHMFEIEKKGYAPISYDIYVNPSKAINLDFFM”, -0.974; under “HMGQKDYKTRLQEYFAKQGLKVNYEDTSHGPDHNKNFSTDVFLDGKIIGSGIGKSKKSSQQSAAKDALNIL”, 0.473.
Take “HMGQLIGKEEAKQIALSRAGVAEGDISRYESELDTDDGKTKYEISFHVGRVEYDIEINAVTGAVEKFEMDN”: the “soluble fraction (log2)” value turned out to be 0.587.
Turning to “HMGQTDTIIKTTTDLYYEMSTMSDDDKLVVAQTLRDVWMAVGRWSGKLSKKQREKVAEVKRVLGE”, the “soluble fraction (log2)” value was -0.866.
As for “HMGQVAKPPLKELGADPVTGKPMVLKDGRFGPYVTDGEYNASLRKDDDIETIGVERAAELLQIRREKGP”, the “soluble fraction (log2)” value was -0.252.
With “HMGQVGIPFSDFLAEVENGQVREVVIKGNDISGTFNDNRGFSTYAPNDPNLVEKLTKRGVVINAQPTE”, the “soluble fraction (log2)” value was 0.077.
“HMGQVSEAGELEVAADRVIAANPEAVTKYKSGNENILQFLVGQMMKETKGAANPQVAAEILRKKIV”: the “soluble fraction (log2)” value amounted to 0.065.
Under “HMGRELDLNQRVYDFIHDIADEVRTDEGTFSANQMMERFLFPGDLQSVPIGRLSGGERRRLYLLSVLMVKI” stands -0.0184; under “HMGRFPSLTPVVIDALTAQYREHPGWTVQLHVDNLRVVLAANQTPLPSYPTIRRYLLAQGMRRQTRP”, -0.396.
With “HMGRLNMRRIRDVLRLKFGQGLSERQVAASLGLSKTSVGTYLHRARQAGLTWPLPQGLDDDGLELLLFP”, the “soluble fraction (log2)” value is -1.69.
The value for “HMGRMTRKDRALATDLYGRIVGNVDDFHEGRIDYETFSERQRGLWTTLDAAGPEVKRAVLADIRERL” was -0.563.
Under “HMGRWQPSTSAKQHGESALLLERLLHLERLTVSEAFHVLTINHRLNLSLPEYRSLLAVVQLPK” stands -1.8.
Regarding “HMGRYDWIEQIDDPVLAERLKHLTEDDLELLTRYVFEDATQKELASQYGIGQQSVSKRLKKLKSFLTK”, the “soluble fraction (log2)” value is -0.355.
With “HMGSATAPDLKGLTYEQAQTKAEDAGYNIEKGEDVYDNDVEKGKVASQDPEAGAEAKEGSVITVNISK”, the “soluble fraction (log2)” value is -0.0215.
On to “HMGSFAADVGRMVRLGRAKRGISRRKLAADSGISERYLAQIEGGQGNPSVNVLKAIADAISVPVFELLPH”, for which the “soluble fraction (log2)” value was -1.74.
“HMGSFDDAPDQLRQSILQLLAEGPLPPSAITERLNISREDATEALQQLLDEQRIFAVNGMLQLQPG”: the “soluble fraction (log2)” value was -0.109.
Consider “HMGSFTDKQIKQAFGVLNDPRFKQGNYDGAVAVINKIAPGLADHPSVANALKRANEATQDIAQQTQA”, for which the “soluble fraction (log2)” value turned out to be 0.0868.
The value for “HMGSGQIRYITENTVRVVYGTSKENEFVFQDGKPYPKDTPYHIHYTRNLEEYFMSGVEHDKNSKIILKVD” was -0.946.
Turning to “HMGSGVNVTVNGKRMNLPLKDDHIIFVDIFNYIDFDLSKPKGSIVLKLNGRDAGYTDPIKDGDVIDIYWQ”, the “soluble fraction (log2)” value was -0.301.
For “HMGSIDYLVGSRLRQYRRLRGYSLIEFSAMLHRSKSAISKYERGEVSIDLRTLNEMARLLDIPLSGLLL”, the “soluble fraction (log2)” value is -4.56.
On to “HMGSIEASFEEDVRRYLARKSMTTTEISKKMRQKRPDMSRDQLMTLLANAIKRIKPIKKKIKGTLYLSLE”, for which the “soluble fraction (log2)” value is -2.07.
As to “HMGSIMIIVLKENAPQQAAEKLMKEIRAKGLQIDVSKGTRKTVLGLVGDTSVIDMEHVQGYDYVDKVLRV”, the “soluble fraction (log2)” value is -1.11.
Under “HMGSKDLPFSTFMSEIDKGNITSVDIRGNEIQGTFANGTKFRTYSPNYPNLVEKLNGKGVSITAGPV” stands 0.409.
For “HMGSKKITIYVSGEVKNPGIVTLNSDQRLASAVEKLGGVTENADMNNINLAMKLEDEMHYIIPKKGEK”, the “soluble fraction (log2)” value was -0.0389.
On to “HMGSKQVSVPDVRNLDYERASQQLREAGFVVGDVLRIRDDRAPAGTVIAQSPAAPALVPENARVSLLVSSG”, for which the “soluble fraction (log2)” value was determined as 0.124.
